Our source for the bioactivity relative to the PEG-rhGH reference, reporter gene assay (luciferase, HepG2/IGF-1 cells) values is PMC11820146.

The target of the experiment is growth hormone receptor (GHR) (UniProt P10912).
UniProt P10912, sequence (P10912 19-638): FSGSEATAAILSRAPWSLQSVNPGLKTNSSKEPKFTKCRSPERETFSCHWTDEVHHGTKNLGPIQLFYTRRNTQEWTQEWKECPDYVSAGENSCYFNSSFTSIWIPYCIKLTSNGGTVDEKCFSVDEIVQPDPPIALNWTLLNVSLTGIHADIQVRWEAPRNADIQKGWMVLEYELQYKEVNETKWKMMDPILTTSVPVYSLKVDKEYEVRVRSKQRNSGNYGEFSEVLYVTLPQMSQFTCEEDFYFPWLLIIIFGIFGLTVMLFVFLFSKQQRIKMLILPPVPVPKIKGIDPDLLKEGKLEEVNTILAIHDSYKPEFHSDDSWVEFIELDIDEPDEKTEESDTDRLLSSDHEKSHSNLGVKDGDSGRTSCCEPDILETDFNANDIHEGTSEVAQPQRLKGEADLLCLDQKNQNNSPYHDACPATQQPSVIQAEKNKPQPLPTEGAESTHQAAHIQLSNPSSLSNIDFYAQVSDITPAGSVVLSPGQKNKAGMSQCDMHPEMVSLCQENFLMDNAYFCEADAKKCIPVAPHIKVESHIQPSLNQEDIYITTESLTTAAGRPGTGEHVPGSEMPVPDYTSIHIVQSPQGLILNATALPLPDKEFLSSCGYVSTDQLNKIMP
Regarding “PEG-rhGH isomer P5 (PEGylated recombinant human growth hormone, modified at K158) (from UniProt P01241 27-217) (ligand)”, the bioactivity relative to the PEG-rhGH reference, reporter gene assay (luciferase, HepG2/IGF-1 cells) was found to be 107%. The result for “PEG-rhGH isomer P4 (PEGylated recombinant human growth hormone, modified at K38) (from UniProt P01241 27-217) (ligand)” reads 29%. In the case of “PEG-rhGH isomer P2 (PEGylated recombinant human growth hormone, modified at K140) (from UniProt P01241 27-217) (ligand)”, the bioactivity relative to the PEG-rhGH reference, reporter gene assay (luciferase, HepG2/IGF-1 cells) came out at 163%.

With “PEG-rhGH isomer P3 (PEGylated recombinant human growth hormone, modified at K145) (from UniProt P01241 27-217) (ligand)”, the bioactivity relative to the PEG-rhGH reference, reporter gene assay (luciferase, HepG2/IGF-1 cells) was found to be 143%. For the substance “PEG-rhGH isomer P1 (PEGylated recombinant human growth hormone, modified at the N-terminus) (from UniProt P01241 27-217) (ligand)”, the bioactivity relative to the PEG-rhGH reference, reporter gene assay (luciferase, HepG2/IGF-1 cells) is 71.1%.
